From the nanobody polyreactivity screen of Harvey et al. (2022)

Assay: yeast display, Sf9 membrane polyspecificity reagent, FACS + sequencing; frameworks hold sequencing errors
Outline: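 Galactose-induced (36–48 hours) yeast carrying a synthetic nanobody display library were exposed to 10% biotinylated, detergent-solubilized Sf9 membrane reagent at 4 °C for 1 hour. FACS followed streptavidin microbead enrichment, using low and high (top ~1%) gates for expression (anti-HA) and reagent binding (streptavidin). Colony PCR, MiSeq 2 × 250 sequencing and CDR-length filtering followed. Labels for polyreactivity reflect the gate of origin.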

Sequence | polyreactivity (PSR sort gate)
QVQLVESGGGLVQAGGSLRLSCAASGIYYNAMGWYRQAPGKERELVAAITTGDRTNYADSVKGRFTISRDNAKNTVYLQMNCLKPEDTAVYYCNAVVERLSSTARDFAYDYWGQGTQVTVSS | low polyreactivity
QVQLVESGGGLVQAGGSLRLSCAASGRTFGYYDMGWYRPAPGKERELVAAITWIDGRTYYADSVKGRFTISRDNAKNTVYLQMNSLKPEDTAVYYCAKRHKAGFYRTYRYGYWGQGTQVTVSS | high polyreactivity
QVQLVESGGGLVQAGGILRLSCAASGYIFGPNAMGCYRQAPGKERELVAGITWSTGNTYYAVSVKGRFTISRDNAKNTVYLHMNSLKPEDTAVYYCAADFYVAYEGVQPYWMDYWGQGTQVNVSS | low polyreactivity
QVQLVESGGGLVQAGGSLRLSCAASGRTFTSYAMGWYRQAPGKERELVAAITRGGRTNYADSVKGRFTISRDNAQNTVYLQMNSLKPEDTAVYYCNADGPGYAAKYYWKYDYWGQVTQVTVSS | low polyreactivity
KVQLVESGGGLVQAGGSLRLSCAASGFTFEGYAMGWYRQAPGKEMELVAAISSNGGRTYYADSVKGRFTISRDNAKNTVYLQMNSLKPEDTAVYYCNARRAYSGPDYDYYHGRRYDYWGQGTQVTVSS | low polyreactivity
QVQLVESGGGLVQAGGSLRLSCAASGSTFRYYVMGWYRPAPGKERELVAAITRGGSTNYADSVKGRFTISRDNAKNTVYLQMNSLKPEDTAVYYCAARGGWKRPFGYQLQYDYWGQGTQVTVSS | high polyreactivity
QVQLVESGGGLVQAGGSLRLSCAASGFTFRTYAMGWYRQAPGKEREFVAAITTSGGSTYYADSVKGRFTISRDNAKNTVYLQMNSLKPEDTAVYYCAAKKATVVYRMEYWGQGTQVTVSS | high polyreactivity
QFQLVESGGGLVQAGGSLRLSCAASGSTFRGYVMGWYRQAPGKERELVAAITFSSGSTYYADSVKGRFTISRDNAKNTVYLQMNSLKPEDTAVYYCAAVGPYYRDYYYWGQGTQVTVSS | high polyreactivity
QVQVVESGGGLVQAGASLRLSCAATGSIFVWNDMGGYRQAPGTEREFVAAITSGDGSTYYADSVKGRFTISRDNAKNTGYLQMNSLKPEDTAVYYCAARLRVTGFYSRTRFYWGQGTQVTVSS | low polyreactivity
QVQLVESGGGLVQAGGSLRLSCAASGLIFKSYAMGWYRQAPGKERELVAAITWSGGRTYYADSVKGRFTISRDNAKNTVYLQMNSLKPEDTAVYYCAGREYLPPYYYWGQGTQVTVSS | high polyreactivity
QVQLVESVGGLVQAGGSLLLSCAASGFTFGPYAMGWYRQAPGKERELVAAISRSGGSTYYSDSVKGRFTISRYNAKNTVYLQLNSLKPEDTAVYYCAACSAYLWGQGTQVTVSS | low polyreactivity
QVQLVESGAGLVQAGGSRRLSCAASGSIFYRYTMGWYRQAPGKERELVAGITFGAGTYYADSVKGRFTISRDNAKNTVYLQMNSLKPEDTAVYYCNAIHLPRNRDYWGQGTQVTVSS | low polyreactivity
QVQLVESGGRLVQAGGSLRLSCAASGSIFSKYTMGWYRQAPGKERELVAAISRAGSTYYADSVKGRFTISRDNAKNTVYLQMNSLKPEDTAVYYCNARYRGVYPLIGNRRDYYYWGQGTQVTVSS | high polyreactivity
QVQLVESGGGLVQAGGSLRLSSAASGLIFWAYAMGWYRQAPGKERELVAAINSGGRTYYADSVKGRFTISRDNAKNTVYLQMNSLKPEDTAVYYCAAAGVYSSDYWGQGTQVTVSS | low polyreactivity
QVQIVESGGGLVQAGGSLRLSCAASGSIIYRNAMGWYRQAPGKERELVAAIRTSSGSTYYAVSVKGRFTISRDNAKNTVYLQMNSLKPVDTAVYYCGAPRLYGYYSCGQGTQVTVSS | low polyreactivity
QVQRVESGGGLVQAGGSLRLSCAASRRIFKLYAMGWYIQAPGKERELVAAINRRGGSTSYADSVKVRFTISRDYAKNTVYLQMNSLKPEDTAVYYCAASYTGRTVVQGYEYWGQGTQVTVSS | high polyreactivity
QVQLVESGGGLVQAGGTLRLSCAPSGSTFVPNAMGWYRQAPGKERELVATITSSSSRTYYADSVKGRFTISRDNAKNTVYLQMNSLKPEDTAVYYCAADGRRVVARYDYWGQGTQVTVSS | high polyreactivity
